Measured values taken from the RNAGym collection of RNA variant scans (doi:10.1073/pnas.2313332121).

B1: TPR t1 (parent)
chain: GACCAAUCUGCCCUCAGAGCUCGAGAACAUCUUCGGAUGCAGAGGAGGCAGGCUUCGGUGGCGCGAUAGCGCCAACGUCCUCAACCUCCAAUGCAUCCCACCACAUGAUGAUGCCUGAAGAGCCUUGGUUUUUUG

Variants of: B1
Experiment: polymerase ribozyme fitness, log enrichment relative to wild type (log ratio); higher = more active; in vitro selection for triplet polymerase activity
Method in brief: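 Each subunit of a heterodimeric triplet polymerase ribozyme was mutagenized into a library by PCR, transcribed, and subjected to one round of in vitro selection, run in triplicate. Libraries were annealed with a biotinylated primer, the partner subunit and triplets, incubated frozen at −7 °C, and extended constructs were gel-excised, captured on streptavidin beads and recovered by RT-PCR. Input and output libraries were sequenced on Illumina, keeping genotypes with ≥10 input reads and ≥1 read per output. Fitness is log base 2 of genotype enrichment divided by wild-type enrichment, from inverse-variance-weighted replicate averages.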

| Variant | polymerase ribozyme fitness (log ratio) |
| --- | --- |
| C28G A50C G61A C88A | -3.77 |
| C11G C70U G122U | -0.676 |
| A74G A91C C124G | 0.0731 |
| G42U C115G | -1.8 |
| G17C C20A | -5.15 |
| C11U C15A C64U A84U | -2.56 |
| C12A U21C C72G | -0.431 |
| C56A C82U | -0.413 |
| U55C G69C C79A | -3.59 |
| A2G C49U C62A C94G | -4.35 |
| G45C U132A | -1.99 |
| G63A A95U | -0.563 |
| U33G C64A G71U U112A | -7.32 |
| C89U G110C | -3.36 |
| G47A C56U U112A | 0.663 |
| U59A A74G C114G U126A G128A | -3.97 |
| U54A C56A C124A | 1.58 |
| C12A A16C | -2.4 |
| C11G U96A | -0.629 |
| C8G G10C C11U C20A U33C C56G G63U C64G C72G C114G G127U | -6.79 |
| C3U G39U G61A G93C C101A | -3.7 |

| Variant | polymerase ribozyme fitness (log ratio) |
| --- | --- |
| A5U A18C A111C | -2.56 |
| U129C U131A | -0.49 |
| U109C C124A | -1.7 |
| A90U C98G C114G G117C C123U U126C | -5.73 |
| G19A C40U U112A | -0.444 |
| C56A C94G C101A U116G | -4.75 |
| A83C A119G | -0.249 |
| C8A G52U G60C A91U U112A A118C U131C | -1.41 |
| G77U C88U C115U U131A | -1.33 |
| G44U A83C | -1.34 |
| G71C U87A | -2.35 |
| C40A U112A | -0.958 |
| C20U C53A A111G C114U | -7.62 |
| G36U G69U U96C C101U U126A | -2.59 |
| G17U A26G G71A C94A U112C C115A | -2.54 |
| A6C C62G G113A | -3.34 |
| C31G G45C C64G G113U | -5.01 |
| C34U G44A G69A | -7.2 |
| U7C U32C U106A G113U | -3.53 |
| C11U G47U C62U G71U C82A A95U | -2.79 |
| C53U A91C G120C U133C G135U | -0.968 |

| Variant | polymerase ribozyme fitness (log ratio) |
| --- | --- |
| A29U A37U G60U C89U | -3.5 |
| C13G C15U C40U G117U G120A | -2.61 |
| C22G A26C G110U | -6.02 |
| C115U G122U | -1.31 |
| C80U G117A | -2.28 |
| C22G C79A C94U G110U A119G U133A | -3.44 |
| A41G C49A G113C C124U | -3.06 |
| C53U C80U U81C | -4.05 |
| U59A U116G G120C | -0.387 |
| A50G C99U C115U G117C | -6.47 |
| G48A C88U | -0.667 |
| C20U C56U G93A C114G U129G | -2.17 |
| C8U U81A A84G | -0.331 |
| C64U C82U G93U C94U U96C C123U | -3.01 |
| A91G C101U | -1.08 |
| C53A G60A U78C | 0.136 |
| A2U U9A A26C G60A G117U | -6.53 |
| G69A C98A A121U | -6.1 |
| C28A C70A | -4.81 |
| C70U C80A A90U C123A | -6.41 |
| C49A C64U G117U | -2.9 |

| Variant | polymerase ribozyme fitness (log ratio) |
| --- | --- |
| U7G G48U U59C C86G | -1.39 |
| C34U G63A A90G | -6.16 |
| C85A C114G | -4.62 |
| C8A G35U G58C | -4.74 |
| C72U A103U U125G | -6.8 |
| G19C G44A G61A U125G | -2.72 |
| C56A U112C | -0.107 |
| G48A C49G G51U C94A A111U | -6.59 |
| C86A A103U | -4.95 |
| A121G U132A | 1.94 |
| C15U U33G C88G C115G | -6.42 |
| A84U G93C | -1.39 |
| C40A A66C G77A | -3.74 |
| C86A C99U C101U A121G G122U | -1.38 |
| C64U G93A U96A U126G | -5.25 |
| G60A C85U | -0.816 |
| A43U U106A A108U U112A | -2.46 |
| C62U U92C U116C A119G | 0.218 |
| G10C A27G A43U G110U | -5.07 |
| G48C G57U G69U U92C | -1.31 |
| C49U U130C | 0.0143 |
